According to patent publication US20080108569:

Molecular target: 6His-tagged human Akt1, P31749
Sequence (P31749 whole entry, looked up): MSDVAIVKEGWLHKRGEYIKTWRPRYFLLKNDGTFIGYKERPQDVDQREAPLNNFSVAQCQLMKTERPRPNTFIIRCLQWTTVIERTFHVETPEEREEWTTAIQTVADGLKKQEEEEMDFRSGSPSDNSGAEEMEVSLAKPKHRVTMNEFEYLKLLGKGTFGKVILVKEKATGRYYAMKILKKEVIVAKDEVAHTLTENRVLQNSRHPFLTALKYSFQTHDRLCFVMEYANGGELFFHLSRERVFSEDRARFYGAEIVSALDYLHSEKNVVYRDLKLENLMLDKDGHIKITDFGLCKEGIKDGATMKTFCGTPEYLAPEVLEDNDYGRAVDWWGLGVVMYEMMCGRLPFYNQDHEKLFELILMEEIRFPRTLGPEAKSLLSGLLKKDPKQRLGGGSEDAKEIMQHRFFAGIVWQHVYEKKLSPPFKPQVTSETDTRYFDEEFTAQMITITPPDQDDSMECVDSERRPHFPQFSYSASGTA

| Protein | dephosphorylation of Ser 473 by immunoprecipitated enzyme | dephosphorylation of Thr 308 by immunoprecipitated enzyme | dephosphorylation of Ser 473 in 5 minutes (phospho-specific antibody) | dephosphorylation of Thr 308 in 5 minutes (phospho-specific antibody) |
| --- | --- | --- | --- | --- |
| HA-tagged full length PHLPP2 (protein) MGYPYDVPDYAMKRNGSRNCLNRRSRFGSRERDWLREDVKRGCVYLYGADTTTATTTTTTSSSSSSSSSSSDLHLVLCTVETPASEICAGEGRESLYLQLHGDLVRRLEPTERPLQIVYDYLSRLGFDDPVRIQEEATNPDLGCMIRFYGEKPCHMDRLDRILLSGIYNVRKGKTQLHKWAERLVVLCGTCLIVSSVKDCQTGKMHILPLVGGKIEEVKRRQYSLAFSSAGAQAQTYHVSFETLAEYQRWQRQASKVVSQRISTVDLSCYSLEEVPEHLFYSQDITYLNLRHNFMQLERPGGLDTLYKFSQLKGLNLSHNKLGLFPILLCEISTLTELNLSCNGFHDLPSQIGNLLNLQTLCLDGNFLTTLPEELGNLQQLSSLGISFNNFSQIPEVYEKLTMLDRVVMAGNCLEVLNLGVLNRMNHIKHVDLRMNHLKTMVIENLEGNKHITHVDLRDNRLTDLDLSSLCSLEQLHCGRNQLRELTLSGFSLRTLYASSNRLTAVNVYPVPSLLTFLDLSRNLLECVPDWACEAKKIEVLDVSYNLLTEVPVRILSSLSLRKLMLGHNHVQNLPTLVEHIPLEVLDLQHNALTRLPDTLFSKALNLRYLNASANSLESLPSACTGEESLSMLQLLYLTNNLLTDQCIPVLVGHLHLRILHLANNQLQTFPASKLNKLEQLEELNLSGNKLKTIPTTIANCKRLHTLVAHSNNISIFPEILQLPQIQFVDLSCNDLTEILIPEALPATLQDLDLTGNTNLVLEHKTLDIFSHITTLKIDQKPLPTTDSTVTSTFWSHGLAEMAGQRNKLCVSALAMDSFAEGVGAVYGMFDGDRNEELPRLLQCTMADVLLEEVQQSTNDTVFMANTFLVSHRKLGMAGQKLGSSALLCYIRPDTADPASSFSLTVANVGTCQAVLCRGGKPVPLSKVFSLEQDPEEAQRVKDQKAIITEDNKVNGVTCCTRMLGCTYLYPWILPKPHISSTPLTIQDELLILGNKALWEHLSYTEAVNAVRHVQDPLAAAKKLCTLAQSYGCQDNVGAMVVYLNIGEEGCTCEMNGLTLPGPVGFASTTTIKDAPKPATPSSSSGIASEFSSEMSTSEVSSEVGSTASDEHNAGGLDTALLPRPERRCSLHPTPTSGLFQRQPSSATFSSNQSDNGLDSDDDQPVEGVITNGSKVEVEVDIHCCRGRDLENSPPLIESSPTLCSEEHARGSCFGIRRQNSVNSGMLLPMSKDRMELQKSPSTSCLYGKKLSNGSIVPLEDSLNLIEVATEVPKRKTGYFAAPTQMEPEDQFVVPHDLEEEVKEQMKQHQDSRLEPEPHEEDRTEPPEEFDTAL | 60+4% dephosphorylation of Ser 473 | no significant effect on Thr 308 phosphorylation |  |  |
| GST-tagged PP2C domain of PHLPP2 (protein) TSTFWSHGLAEMAGQRNKLCVSALAMDSFAEGVGAVYGMFDGDRNEELPRLLQCTMADVLLEEVQQSTNDTVFMANTFLVSHRKLGMAGQKLGSSALLCYIRPDTADPASSFSLTVANVGTCQAVLCRGGKPVPLSKVFSLEQDPEEAQRVKDQKAIITEDNKVNGVTCCTRMLGCTYLYPWILPKPHISSTPLTIQDELLILGNKALWEHLSYTEAVNAVRHVQDPLAAAKKLCTLAQSYGCQDNVGAMV |  |  | 82+6% (Ser 473) | 70+2% (Thr 308) |
